Reference: article PMC2756588

Legend:
Test in all cases: SPOT array
Abp1, P15891 = molecular target: T1, Abp1, P15891; settings: median of control spots 935
T1 sequence (P15891 535-592, looked up): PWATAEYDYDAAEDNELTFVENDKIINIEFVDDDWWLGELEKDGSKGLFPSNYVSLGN

Bbc1, P47068 = molecular target: T2, Bbc1, P47068; settings: median of control spots 796
T2 sequence (P47068 1-78, looked up): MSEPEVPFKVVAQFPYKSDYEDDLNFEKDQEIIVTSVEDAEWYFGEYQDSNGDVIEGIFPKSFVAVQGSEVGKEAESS

Bem1-1, P29366 = settings: median of control spots 4282
Sequence of Bem1-1, P29366 (P29366 55-141): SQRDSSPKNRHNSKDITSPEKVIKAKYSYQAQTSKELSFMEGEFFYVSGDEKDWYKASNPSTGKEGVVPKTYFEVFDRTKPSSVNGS

Bem1-2, P29366 = settings: median of control spots 4347
Sequence of Bem1-2, P29366 (P29366 139-227): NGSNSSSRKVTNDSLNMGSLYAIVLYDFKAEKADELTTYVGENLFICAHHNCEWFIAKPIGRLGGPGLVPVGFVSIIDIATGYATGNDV

Boi1, P38041 = molecular target: T3, Boi1, P38041; settings: median of control spots 1162
T3 sequence (P38041 1-86, looked up): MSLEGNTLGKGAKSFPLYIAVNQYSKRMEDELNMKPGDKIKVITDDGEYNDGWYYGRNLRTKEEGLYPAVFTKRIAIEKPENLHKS

Boi2, P39969 = molecular target: T4, Boi2, P39969; settings: median of control spots 1161
T4 sequence (P39969 32-116, looked up): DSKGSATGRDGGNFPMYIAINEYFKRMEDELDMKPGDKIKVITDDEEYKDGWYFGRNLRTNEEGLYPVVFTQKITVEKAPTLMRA

Bud14, P27637 = molecular target: T5, Bud14, P27637; settings: median of control spots 956
T5 sequence (P27637 247-328, looked up): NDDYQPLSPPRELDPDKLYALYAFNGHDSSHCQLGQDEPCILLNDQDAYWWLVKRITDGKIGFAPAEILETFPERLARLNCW

Bzz1-1, P38822 = molecular target: T6, Bzz1-1, P38822; settings: median of control spots 4446
T6 sequence (P38822 478-572, looked up): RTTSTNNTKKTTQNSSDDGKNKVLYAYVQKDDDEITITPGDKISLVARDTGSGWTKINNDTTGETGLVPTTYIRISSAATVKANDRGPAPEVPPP

Bzz1-2, P38822 = molecular target: T7, Bzz1-2, P38822; settings: median of control spots 4538
T7 sequence (P38822 568-633, looked up): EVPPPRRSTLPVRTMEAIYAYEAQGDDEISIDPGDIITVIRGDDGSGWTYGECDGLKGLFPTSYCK

Cdc25, P04821 = molecular target: T8, Cdc25, P04821; settings: median of control spots 969
T8 sequence (P04821 50-136, looked up): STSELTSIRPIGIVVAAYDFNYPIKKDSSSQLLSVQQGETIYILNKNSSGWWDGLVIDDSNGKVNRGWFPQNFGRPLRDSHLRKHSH

Cyk3, Q07533 = molecular target: T9, Cyk3, Q07533; settings: median of control spots 1451
T9 sequence (Q07533 1-83, looked up): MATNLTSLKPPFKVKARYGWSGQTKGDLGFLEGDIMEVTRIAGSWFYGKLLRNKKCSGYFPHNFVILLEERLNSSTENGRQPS

Fus1, P11710 = molecular target: T10, Fus1, P11710; settings: median of control spots 1200
T10 sequence (P11710 432-512, looked up): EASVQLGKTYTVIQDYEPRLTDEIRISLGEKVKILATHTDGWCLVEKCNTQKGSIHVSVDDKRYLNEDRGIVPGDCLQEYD

GST = settings: median of control spots 978
Hof1, Q05080 = molecular target: T11, Hof1, Q05080; settings: median of control spots 4086
T11 sequence (Q05080 590-669, looked up): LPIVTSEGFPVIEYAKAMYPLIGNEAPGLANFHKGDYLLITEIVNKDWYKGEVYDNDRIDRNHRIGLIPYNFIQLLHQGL

Hse1, P38753 = molecular target: T12, Hse1, P38753; settings: median of control spots 1727
T12 sequence (P38753 208-285, looked up): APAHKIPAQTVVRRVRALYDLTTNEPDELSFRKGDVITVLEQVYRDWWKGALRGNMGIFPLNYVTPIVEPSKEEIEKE

Lsb1, P53281 = molecular target: T13, Lsb1, P53281; settings: median of control spots 388
T13 sequence (P53281 45-122, looked up): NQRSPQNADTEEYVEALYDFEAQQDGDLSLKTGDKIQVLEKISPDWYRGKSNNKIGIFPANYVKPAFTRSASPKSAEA

Lsb3, P43603 = molecular target: T14, Lsb3, P43603; settings: median of control spots 406
T14 sequence (P43603 385-451, looked up): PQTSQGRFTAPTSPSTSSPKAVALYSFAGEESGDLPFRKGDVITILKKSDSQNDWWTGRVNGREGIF

Lsb4, P32793 = molecular target: T15, Lsb4, P32793; settings: median of control spots 397
T15 sequence (P32793 402-468, looked up): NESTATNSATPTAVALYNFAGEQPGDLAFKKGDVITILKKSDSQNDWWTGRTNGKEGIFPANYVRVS

Myo3, P36006 = settings: median of control spots 468
Myo5, Q04439 = molecular target: T16, Myo5, Q04439; settings: median of control spots 471
T16 sequence (Q04439 1072-1160, looked up): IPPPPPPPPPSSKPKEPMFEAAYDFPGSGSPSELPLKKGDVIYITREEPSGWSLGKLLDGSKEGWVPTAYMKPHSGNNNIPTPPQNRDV

Nbp2, Q12163 = molecular target: T17, Nbp2, Q12163; settings: median of control spots 357
T17 sequence (Q12163 103-180, looked up): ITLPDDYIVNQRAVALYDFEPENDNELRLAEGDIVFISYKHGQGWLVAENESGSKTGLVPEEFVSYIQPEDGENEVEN

Pex13, P80667 = molecular target: T18, Pex13, P80667; settings: median of control spots 1341
T18 sequence (P80667 295-386, looked up): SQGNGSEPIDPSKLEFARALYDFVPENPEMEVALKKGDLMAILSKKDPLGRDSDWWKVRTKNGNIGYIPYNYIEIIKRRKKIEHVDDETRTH

Pin3, Q06449 = molecular target: T19, Pin3, Q06449; settings: median of control spots 2171
T19 sequence (Q06449 53-122, looked up): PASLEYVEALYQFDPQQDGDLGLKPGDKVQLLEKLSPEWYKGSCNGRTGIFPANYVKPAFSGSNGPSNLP

Rvs167, P39743 = settings: median of control spots 2707
Sequence of Rvs167, P39743 (P39743 419-482): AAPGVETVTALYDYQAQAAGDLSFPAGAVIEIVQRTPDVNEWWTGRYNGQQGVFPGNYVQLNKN

Sho1, P40073 = settings: median of control spots 1148
Sequence of Sho1, P40073 (P40073 287-367): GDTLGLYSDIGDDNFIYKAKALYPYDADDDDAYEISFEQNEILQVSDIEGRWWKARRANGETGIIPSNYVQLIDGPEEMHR

Sla1-2, P32790 = molecular target: T20, Sla1-2, P32790; settings: median of control spots 712
T20 sequence (P32790 60-140, looked up): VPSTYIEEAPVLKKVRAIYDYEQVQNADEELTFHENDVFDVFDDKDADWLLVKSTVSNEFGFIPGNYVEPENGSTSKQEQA

Sla1-3, P32790 = molecular target: T21, Sla1-3, P32790; settings: median of control spots 5475
T21 sequence (P32790 344-424, looked up): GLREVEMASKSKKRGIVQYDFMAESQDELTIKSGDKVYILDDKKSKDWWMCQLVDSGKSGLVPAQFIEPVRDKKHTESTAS

## IHTRRPSSTSQYLIR
Abp1, P15891
  SPOT intensity: 27
Bbc1, P47068
  SPOT intensity: 6
Bem1-1, P29366
  SPOT intensity: 9
Bem1-2, P29366
  SPOT intensity: 43
Boi1, P38041
  SPOT intensity: 2
Boi2, P39969
  SPOT intensity: 0
Bud14, P27637
  SPOT intensity: 4
Bzz1-1, P38822
  SPOT intensity: 0
Bzz1-2, P38822
  SPOT intensity: 7
Cdc25, P04821
  SPOT intensity: 10
Cyk3, Q07533
  SPOT intensity: 1
Fus1, P11710
  SPOT intensity: 233
GST
  SPOT intensity: 0
Hof1, Q05080
  SPOT intensity: 11
Hse1, P38753
  SPOT intensity: 22
Lsb1, P53281
  SPOT intensity: 0
Lsb3, P43603
  SPOT intensity: 0
Lsb4, P32793
  SPOT intensity: 2
Myo3, P36006
  SPOT intensity: 1
Myo5, Q04439
  SPOT intensity: 1
Nbp2, Q12163
  SPOT intensity: 0
Pex13, P80667
  SPOT intensity: 11
Pin3, Q06449
  SPOT intensity: 25
Rvs167, P39743
  SPOT intensity: 0
Sho1, P40073
  SPOT intensity: 28
Sla1-2, P32790
  SPOT intensity: 0
Sla1-3, P32790
  SPOT intensity: 21

## NLPKRKPPKLQGPFS
Abp1, P15891
  SPOT intensity: 202
Bbc1, P47068
  SPOT intensity: 31
Bem1-1, P29366
  SPOT intensity: 0
Bem1-2, P29366
  SPOT intensity: 81
Boi1, P38041
  SPOT intensity: 2
Boi2, P39969
  SPOT intensity: 1
Bud14, P27637
  SPOT intensity: 12
Bzz1-1, P38822
  SPOT intensity: 9
Bzz1-2, P38822
  SPOT intensity: 49
Cdc25, P04821
  SPOT intensity: 53
Cyk3, Q07533
  SPOT intensity: 1
Fus1, P11710
  SPOT intensity: 6
GST
  SPOT intensity: 1
Hof1, Q05080
  SPOT intensity: 24
Hse1, P38753
  SPOT intensity: 440
Lsb1, P53281
  SPOT intensity: 0
Lsb3, P43603
  SPOT intensity: 4
Lsb4, P32793
  SPOT intensity: 20
Myo3, P36006
  SPOT intensity: 42
Myo5, Q04439
  SPOT intensity: 3
Nbp2, Q12163
  SPOT intensity: 56
Pex13, P80667
  SPOT intensity: 11
Pin3, Q06449
  SPOT intensity: 6
Rvs167, P39743
  SPOT intensity: 0
Sho1, P40073
  SPOT intensity: 121
Sla1-2, P32790
  SPOT intensity: 1
Sla1-3, P32790
  SPOT intensity: 213

## RKNRAPPQRPRFNRE
Abp1, P15891
  SPOT intensity: 235
Bbc1, P47068
  SPOT intensity: 362
Bem1-1, P29366
  SPOT intensity: 0
Bem1-2, P29366
  SPOT intensity: 65
Boi1, P38041
  SPOT intensity: 8
Boi2, P39969
  SPOT intensity: 3
Bud14, P27637
  SPOT intensity: 15
Bzz1-1, P38822
  SPOT intensity: 8
Bzz1-2, P38822
  SPOT intensity: 77
Cdc25, P04821
  SPOT intensity: 30
Cyk3, Q07533
  SPOT intensity: 4
Fus1, P11710
  SPOT intensity: 14
GST
  SPOT intensity: 4
Hof1, Q05080
  SPOT intensity: 6
Hse1, P38753
  SPOT intensity: 25
Lsb1, P53281
  SPOT intensity: 390
Lsb3, P43603
  SPOT intensity: 30
Lsb4, P32793
  SPOT intensity: 49
Myo3, P36006
  SPOT intensity: 51
Myo5, Q04439
  SPOT intensity: 5
Nbp2, Q12163
  SPOT intensity: 240
Pex13, P80667
  SPOT intensity: 14
Pin3, Q06449
  SPOT intensity: 12
Rvs167, P39743
  SPOT intensity: 4
Sho1, P40073
  SPOT intensity: 178
Sla1-2, P32790
  SPOT intensity: 4
Sla1-3, P32790
  SPOT intensity: 379
